Assay results: publication PMC6534608, “Rational design of a hypoallergenic Phl p 7 variant for immunotherapy of polcalcin-sensitized patients” (Scientific Reports, 2019)

Experiments:
[1] = target: recombinant Phl p 7 mutant (hypoallergenic variant, four calcium-coordinating residues replaced by alanine) (timothy grass); assay: SEC; size exclusion chromatography (Yarra SEC-X150) coupled to a UV detector (230 nm) and ICPMS; 10 mM Tris, 50 mM ammonium sulfate, pH 7.5; 30 °C; apparent molecular masses
[2] = target: the molecule itself; assay: as above

stoichiometry N [1]	Molecule	stoichiometry N [2]
2	recombinant Phl p 7 mutant (hypoallergenic variant, four calcium-coordinating residues replaced by alanine) (natural protein)	
	recombinant wildtype Phl p 7 (timothy grass pollen polcalcin) (natural protein, codon-optimized synthetic gene in pET17b (NdeI/EcoRI); also called rPhl p 7 wildtype; Phl p 7 wildtype; source: E. coli BL21(DE3), purified (anion-exchange chromatography, HiTrap Q FF)) ADDMERIFKRFDTNGDGKISLSELTDALRTLGSTSADEVQRMMAEIDTDGDGFIDFNEFISFCNANPGLMKDVAKVF	2
